Changes are numbered by the printed parent chain. Names and notes keep the numbering of the source. Blank lines part the entries; values can stand above or below the molecule they belong to.
Columns and labels:
[1] = test system: Swi6-WT (Schizosaccharomyces pombe); experiment: EMSA; settings: 20 mM Hepes pH 7.5, 4 mM Tris, 80 mM KCl, 0.1% Igepal CA-630, 0.2 mM EDTA, 2 mM DTT, 10% glycerol, 10 nM mononucleosome, 30 °C 45 min, 6% acrylamide 0.5x TBE …
[2] = molecular target: the molecule itself; experiment: mass photometry; full-length recombinant Swi6 at 2.5-20 nM in 20 mM HEPES pH 7.5, 100 mM KCl; apparent dimerization constants (Kdim) from the relative abundance of monomer and dimer; dimer to monomers
H3K9me3 mononucleosomes = experiment: native gel or EMSA; Swi6 varied, 10 nM mononucleosomes; 20 mM Hepes pH 7.5, 4 mM tris, 80 mM KCl, 0.1% Igepal CA-630, 0.2 mM EDTA, 2 mM DTT, 10% glycerol; 30 °C for 45 min; unbound nucleosome band quantified; apparent K1/2
MBP-Epe1 = molecular target: T1, MBP-Epe1 (S. pombe, UniProt O94603 1-948); experiment: pull-down; recombinant 3X FLAG-Swi6 immobilised on FLAG M2 beads, three concentrations of recombinant MBP-Epe1; 20 mM HEPES pH 7.5, 150 mM NaCl, 5 mM MgCl2, 10% glycerol, 0.25% Triton X-100, 1 mM DTT; 2 h at 4 °C; blots with anti-MBP and M2 Flag antibodies; settings: both partners purified
T1 construct: Epe1, S. pombe, full-length; also called MBP-His-TEV-Epe1; recombinant MBP-Epe1 fusion protein; source: Hi5 cells infected with baculovirus, purified (amylose resin, Superdex 200); not shown: MBP, N-terminal, kept
T1 sequence (looked up): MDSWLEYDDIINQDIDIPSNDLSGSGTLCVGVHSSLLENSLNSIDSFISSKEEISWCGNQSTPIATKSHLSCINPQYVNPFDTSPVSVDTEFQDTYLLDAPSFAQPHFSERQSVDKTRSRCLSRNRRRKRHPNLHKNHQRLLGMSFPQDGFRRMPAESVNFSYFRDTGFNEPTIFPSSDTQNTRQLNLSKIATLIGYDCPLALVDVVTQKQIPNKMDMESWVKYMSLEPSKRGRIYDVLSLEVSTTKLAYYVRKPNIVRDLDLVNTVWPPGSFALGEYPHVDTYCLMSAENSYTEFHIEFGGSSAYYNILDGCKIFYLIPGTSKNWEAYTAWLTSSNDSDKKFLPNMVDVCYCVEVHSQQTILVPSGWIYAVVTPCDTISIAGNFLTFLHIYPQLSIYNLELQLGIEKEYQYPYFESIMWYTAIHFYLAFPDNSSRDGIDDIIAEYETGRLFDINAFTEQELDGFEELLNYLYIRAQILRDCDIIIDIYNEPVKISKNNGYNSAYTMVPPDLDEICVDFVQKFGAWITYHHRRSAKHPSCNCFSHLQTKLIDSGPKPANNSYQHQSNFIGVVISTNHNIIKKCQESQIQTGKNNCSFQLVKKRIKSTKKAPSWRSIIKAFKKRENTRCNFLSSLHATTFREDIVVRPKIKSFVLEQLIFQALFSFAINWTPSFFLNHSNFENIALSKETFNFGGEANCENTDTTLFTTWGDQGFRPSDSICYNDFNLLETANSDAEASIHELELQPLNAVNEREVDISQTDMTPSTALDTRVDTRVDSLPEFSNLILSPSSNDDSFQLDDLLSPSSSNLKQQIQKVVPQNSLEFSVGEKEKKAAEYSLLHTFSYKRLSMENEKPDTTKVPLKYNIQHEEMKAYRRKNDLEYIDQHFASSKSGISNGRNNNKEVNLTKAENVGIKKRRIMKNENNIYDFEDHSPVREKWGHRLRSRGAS

Molecule: H3K9me0 mononucleosome
binding signal (fold weaker than H3K9me3) ([1]; H3K9me0 histone, unmodified H3 (H3K9me0)): 2.4

Molecule: H3K9me3 mononucleosome
K half ([1]; H3K9me3 histone, histone H3K9me3 (DNA unmodified)): 50 nM

apparent K1/2 (H3K9me3 mononucleosomes): 50 nM
specificity for H3K9me3 over H3K9me0 mononucleosomes (H3K9me3 mononucleosomes): 2.4 fold
B1: Swi6-WT (recombinant, full-length) (natural protein, S. pombe, UniProt P40381 1-328, looked up)
chain: MKKGGVRSYRRSSTSKRSVIDDDSEPELPSMTKEAIASHKADSGSSDNEVESDHESKSSSKKLKENAKEEEGGEEEEEDEYVVEKVLKHRMARKGGGYEYLLKWEGYDDPSDNTWSSEADCSGCKQLIEAYWNEHGGRPEPSKRKRTARPKKPEAKEPSPKSRKTDEDKHDKDSNEKIEDVNEKTIKFADKSQEEFNENGPPSGQPNGHIESDNESKSPSQKESNESEDIQIAETPSNVTPKKKPSPEVPKLPDNRELTVKQVENYDSWEDLVSSIDTIERKDDGTLEIYLTWKNGAISHHPSTITNKKCPQKMLQFYESHLTFRENE
notes: Swi6, HP1 homolog of S. pombe; MW 37,292.6 g/mol; source: E. coli BL21(DE3)-RIPL, purified (Ni-NTA, anion exchange, SEC); not shown: 6XHis, N-terminal, cleaved
Kd [2]: 0.38 nM
stoichiometry N [2]: 2

B2: Swi6-T278K (recombinant, full-length) (natural protein, S. pombe, UniProt P40381 1-328, looked up)
chain: B1 chain with T278K
notes: Swi6, HP1 homolog of S. pombe, with T278K; MW 37,319.7 g/mol; also called Swi6-K; source: E. coli BL21(DE3)-RIPL, purified (Ni-NTA, anion exchange, SEC); not shown: 6XHis, N-terminal, cleaved
Kd [2]: 0.2 nM
stoichiometry N [2]: 2

binding result (MBP-Epe1): binds
B3: 3X FLAG-Swi6-WT (recombinant) (natural protein, S. pombe, UniProt P40381 1-328, looked up)
chain: B1 chain
notes: Swi6, HP1 homolog of S. pombe; source: E. coli BL21(DE3)-RIPL, purified (recombinant); not shown: 6XHis, N-terminal, cleaved

apparent K1/2 (H3K9me3 mononucleosomes): 39 nM
specificity for H3K9me3 over H3K9me0 mononucleosomes (H3K9me3 mononucleosomes): 2.3 fold
B4: Swi6-T278Y (recombinant, full-length) (natural protein, S. pombe, UniProt P40381 1-328, looked up)
chain: B1 chain with T278Y
notes: Swi6, HP1 homolog of S. pombe, with T278Y; MW 37,354.7 g/mol; also called Swi6-Y; source: E. coli BL21(DE3)-RIPL, purified (Ni-NTA, anion exchange, SEC); not shown: 6XHis, N-terminal, cleaved
Kd [2]: 0.27 nM
stoichiometry N [2]: 2
